Test results: publication PMC2898433

Molecular target: GST-Kar2p (S. cerevisiae) (UniProt P16474)
Assay: pull-down

B1: His-Sil1p (natural protein)
chain: TILHSSIHSVPSGGEIISAEDLKELEISGNSICVDNRCYPKIFEPRHDWQPILPGQELPGGLDIRINMDTGLKEAKLNDEKNVGDNGSHELIVSSEDMKASPGDYEFSSDFKEMRNIIDSNPTLSSQDIARLEDSFDRIMEFAHDYKHGYKIITHEFALLANLSLNENLPLTLRELSTRVITSCLRNNPPVVEFINESFPNFKSKIMAALSNLNDSNHRSSNILIKRYLSILNELPVTSEDLPIYSTVVLQNVYERNNKDKQLQIKVLELISKILKADMYENDDTNLILFKRNAENWSSNLQEWANEFQEMVQNKSIDELHTRTFFDTLYNLKKIFKSDITINKGFLNWLAQQCKARQSNLDNGLQERDTEQDSFDKKLIDSRHLIFG
reduction of binding in the presence of ATP: 50%
